Experiments:
Assay in all cases: Kinetic evaluation of peptide substrates, varying peptide at fixed ATP (phosphocellulose filter, [γ-33P]ATP)
Type in all cases: biochemical
Conditions in all cases: other: ErbB-2; Km for peptide; ATP concentration >10 × Km (200 μM ATP); pH 7.5; 23.0 °C
[1] = system: CC[C@H](C)[C@H](NC(=O)[C@H](CCC(=O)O)NC(=O)[C@H](CCC(=O)O)NC(=O)[C@H](Cc1c[nH]cn1)NC(=O)[C@H](C)NC(=O)[C@H](CCCNC(=N)N)NC(=O)CCCCCNC(=O)CCCC[C@@H]1SC[C@@H]2NC(=O)N[C@@H]21)C(=O)N[C@@H](Cc1ccc(O)cc1)C(=O)N[C@@H](Cc1c[nH]cn1)C(=O)N[C@@H](Cc1ccccc1)C(=O)N[C@@H](Cc1ccccc1)C(=O)N[C@@H](Cc1ccccc1)C(=O)N[C@@H](C)C(=O)N[C@@H](CCCCN)C(=O)N[C@@H](CCCCN)C(=O)N[C@@H](CCCCN)C(N)=O
Protocol: (§1) Peptide sequences identified as preferred substrates for ErbB-2 using the methods described in Laboratory Example 3 were synthesized. The kcat and Km values for each peptide were determined as follows, using the kinases ErbB-2, ErbB-4, and EGFR.
(§2) Reactions were performed in 96-well polystyrene round bottom plates in a final volume of 45 μL. Reaction mixtures contained 50 mM MOPS, pH 7.5, 10 mM MnCl2, 1 mM dithiothreitol (DTT), 200 μM ATP, 1.0 μCi [γ-^33P] ATP, and varying concentrations of peptide. The reaction was initiated by adding the purified kinase of interest and halted after 10 minutes at 23° C. (room temperature) by adding 45 μL of 0.5% phosphoric acid in water. A 75 μL aliquot of the halted reaction mixture was then transferred to MAPH phosphocellulose filter plates (Millipore, Bedford, Mass.). The plates were filtered three times with 0.2 mL of 0.5 percent phosphoric acid. Scintillation cocktail (50 μL) was added to each well, and the plate was analyzed by counting in a Packard TOPCOUNT® scintillation counter (Packard Instrument Co., Meriden, Conn.). In these assays, the concentration of ATP was greater than ten-fold higher than the Km for ATP, which permitted the kinetic data to be treated as a pseudo-first-order reaction with varying peptide concentration. All experiments were performed in quadruplicate and the average value for each data point was analyzed. The Km and Vmax values were calculated by fitting the data to the Henri-Michaelis-Menten equation by non-linear regression using SIGMAPLOT® (SPSS Science, Chicago, Ill.). kcat values were calculated using the Vmax value, and are based on the protein concentration of the enzyme preparation and an estimate of purity determined from an evaluation of a Coomassie Blue stained SDS-polyacrylamide gel.

[2] = system: CC[C@H](C)[C@H](NC(=O)[C@H](CCC(=O)O)NC(=O)[C@H](Cc1c[nH]cn1)NC(=O)[C@H](Cc1c[nH]cn1)NC(=O)[C@H](C)NC(=O)[C@H](CCCNC(=N)N)NC(=O)CCCCCNC(=O)CCCC[C@@H]1SC[C@@H]2NC(=O)N[C@@H]21)C(=O)N[C@@H](Cc1ccc(O)cc1)C(=O)N[C@@H](Cc1c[nH]cn1)C(=O)N[C@@H](Cc1ccccc1)C(=O)N[C@@H](Cc1ccccc1)C(=O)N[C@@H](Cc1ccccc1)C(=O)N[C@@H](C)C(=O)N[C@@H](CCCCN)C(=O)N[C@@H](CCCCN)C(=O)N[C@@H](CCCCN)C(N)=O
Protocol: as §1, §2

[3] = system: CC[C@H](C)[C@H](NC(=O)[C@H](Cc1ccccc1)NC(=O)[C@H](Cc1c[nH]cn1)NC(=O)[C@H](Cc1ccc(O)cc1)NC(=O)[C@H](CCC(=O)O)NC(=O)[C@H](CCC(=O)O)NC(=O)[C@H](CCC(=O)O)NC(=O)[C@H](Cc1c[nH]cn1)NC(=O)[C@H](C)NC(=O)[C@H](CCCNC(=N)N)NC(=O)CCCCCNC(=O)CCCC[C@@H]1SC[C@@H]2NC(=O)N[C@@H]21)C(=O)N[C@@H](Cc1ccccc1)C(=O)N[C@@H](C)C(=O)N[C@@H](CCCCN)C(=O)N[C@@H](CCCCN)C(=O)N[C@@H](CCCCN)C(N)=O
Protocol: as §1, §2

[4] = system: C[C@H](NC(=O)[C@H](CCCNC(=N)N)NC(=O)CCCCCNC(=O)CCCC[C@@H]1SC[C@@H]2NC(=O)N[C@@H]21)C(=O)N[C@@H](Cc1c[nH]cn1)C(=O)N[C@@H](CCC(=O)O)C(=O)N[C@@H](CCC(=O)O)C(=O)N[C@@H](CCC(=O)O)C(=O)N[C@@H](Cc1ccc(O)cc1)C(=O)N[C@@H](Cc1c[nH]cn1)C(=O)N[C@@H](Cc1ccccc1)C(=O)N[C@@H](Cc1ccccc1)C(=O)N[C@@H](Cc1ccccc1)C(=O)N[C@@H](C)C(=O)N[C@@H](CCCCN)C(=O)N[C@@H](CCCCN)C(=O)N[C@@H](CCCCN)C(N)=O
Protocol: as §1, §2

[5] = system: C[C@H](NC(=O)[C@H](CCCNC(=N)N)NC(=O)CCCCCNC(=O)CCCC[C@@H]1SC[C@@H]2NC(=O)N[C@@H]21)C(=O)N[C@@H](Cc1c[nH]cn1)C(=O)N[C@@H](Cc1c[nH]cn1)C(=O)N[C@@H](CCC(=O)O)C(=O)N[C@@H](CCC(=O)O)C(=O)N[C@@H](Cc1ccc(O)cc1)C(=O)N[C@@H](Cc1c[nH]cn1)C(=O)N[C@@H](Cc1ccccc1)C(=O)N[C@@H](Cc1ccccc1)C(=O)N[C@@H](Cc1ccccc1)C(=O)N[C@@H](C)C(=O)N[C@@H](CCCCN)C(=O)N[C@@H](CCCCN)C(=O)N[C@@H](CCCCN)C(N)=O
Protocol: as §1, §2

Work on ErbB-2 (Homo sapiens) yielded a Km [1] of 11.4 µM, a kcat [1] of 0.0967 s⁻¹ and a kcat/Km [1] of 8500 M⁻¹ s⁻¹. The Km [2] was 66.6 µM, the kcat [2] was 0.173 s⁻¹ and the kcat/Km [2] was 2670 M⁻¹ s⁻¹. The Km [3] was 8.6 µM, the kcat [3] was 0.0333 s⁻¹ and the kcat/Km [3] was 3830 M⁻¹ s⁻¹. For the same substance, the Km [4] was 6.8 µM, the kcat [4] was 0.0127 s⁻¹ and the kcat/Km [4] was 1830 M⁻¹ s⁻¹. The Km [5] was 14.7 µM, the kcat [5] was 0.09 s⁻¹ and the kcat/Km [5] was 6170 M⁻¹ s⁻¹.

From patent US20030113711A1, “Protein kinase peptide substrate determination using peptide libraries” (priority 2001, published 2003)
